This is an account of results in patent US20250163160A1 (Amgen, published 2025).

The target in assay [1] is T1, human FGF21 receptor (FGF21R): full length human FGFR1c and full length human β-Klotho co-expressed on cells (human, UniProt P11362 22-822; Q86Z14 53-1044). As to the kind of experiment: cell-based or functional assay.
Assay [2] concerns the target T1, human FGF21 receptor (FGF21R): full …. As to the kind of experiment: cell-based or functional assay. This is another data set of the same source.

Residue numbers refer to the chain shown, from its start. Names and notes keep the numbering of the source.

B1: Fibroblast Growth Factor 21 (FGF21), human (ligand)
chain: HPIPDSSPLLQFGGQVRQRYLYTDDAQQTEAHLEIREDGTVGGAADQSPESLLQLKALKPGVIQILGVKTSRFLCQRPDGALYGSLHFDPEACSFRELLLEDGYNVYQSEAHGLPLHLPGNKSPHRDPAPRGPARFLPLPGLPPAPPEPPGILAPQPPDVGSSDPLSMVGPSQGRSPSYAS
modifications: Alexa 647-NHS label (Example 1); biotin (Example 8, second Biacore analysis)
Regarding B1, the “EC50 (read off the curve); luciferase reporter (RLU) in AM-1/D FGFR1c+β-Klotho Luc cells, FGF21 alone (0 nM 39F11)” value in assay [1] lay in the range of 1 to 2 nM.

B2: 16H7 variant, heavy chain H3, light chain D49A (antibody, human IgG2, lambda, V domains shown)
VH: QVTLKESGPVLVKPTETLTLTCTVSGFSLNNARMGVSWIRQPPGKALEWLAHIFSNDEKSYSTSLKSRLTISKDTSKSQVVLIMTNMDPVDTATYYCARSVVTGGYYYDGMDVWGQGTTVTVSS
VL: SYVLTQPPSVSVAPGQTARITCGGNNIGSESVHWYQQKPGQAPVLVVYADSDRPSGIPERFSGSNSGNTATLTISRVEAGDEADYYCQVWDGNSDHVVFGGGTKLTVLG
In the case of B2, in assay [2], the “EC50 (nM), Erk-phosphorylation, human adipocyte assay” value was 0.63 nM.

B3: 16H7 variant, heavy chain H3, light chain D91A (antibody, human IgG2, lambda, V domains shown)
VH: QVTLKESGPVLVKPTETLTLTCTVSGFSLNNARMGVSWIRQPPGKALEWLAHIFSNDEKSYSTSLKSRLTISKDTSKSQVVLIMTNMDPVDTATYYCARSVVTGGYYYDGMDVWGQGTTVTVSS
VL: B2 VL with A49D, D91A
Take B3: the “EC50 (nM), Erk-phosphorylation, human adipocyte assay” value in assay [2] came out at 1.3 nM.
